According to PMC4175270:

What was measured:
[1] = molecular target: His6-MobC1-129 (plasmid RA3 (IncU), isolated from Aeromonas hydrophila); assay: cross-linking; His-tagged MobC derivatives (0.1 mg ml^-1) with 0.001%, 0.005% and 0.01% glutaraldehyde; 20% SDS-PAGE, Western blot with anti-His tag antibodies
[2] = molecular target: His6-MobC1-129 (plasmid RA3 (IncU), isolated from Aeromonas hydrophila); assay: SEC-MALS; gel filtration on Superdex 200 10/300 GL with UV, MALS and refractometer in line; 10 mM Tris pH 8.0, 150 mM NaCl; 0.5 ml of His6-MobC at 0.24 mg ml^-1 or His6-MobC1-129 at 0.04 mg ml^-1; no higher oligomers of MobC detected
[3] = molecular target: His6-MobC (WT MobC of plasmid RA3) (plasmid RA3 (IncU), isolated from Aeromonas hydrophila); assay: as above

Row | Substance | stoichiometry N [1] | stoichiometry N [2] | stoichiometry N [3]
1 | His6-MobC1-129 (domain or fragment) | 2 | 2 | –
2 | His6-MobC (WT MobC of plasmid RA3) (natural protein) | – | – | 2
